Assay results reported in patent publication US12458681B2, “Compositions and method for treating acute radiation syndrome” (Prince Biotech, LLC, priority 2014, dated 2025).

Assays:
[1] = biological target: Insulin-degrading enzyme (IDE) (Homo sapiens, UniProt P14735); test: Differential Shift Assay of PIF mutants; assay type: binding
Text: Thus 2 putative mutants were conceived, mutant-1: P6→E6, and mutant-3:[…]; c. Table represent the mutants that were considered, of them 2 were synthesized based on their putative availability as options for ligand-receptor disruptors.

NOD mice = conditions: adoptive transfer and spontaneous disease, long term; cited from earlier work

Row | Sequence | binding to IDE [1] | diabetes development (NOD mice)
1 | MVRGKPGSANKPSDD [mut3] | bind | 
2 | GRVDPSNKSMPKDIA [PTFscr] |  | no effect
3 | MVRIKEGSANKPSDD [mut1] | bind | 
